From publication PMC10805922, “Exosomal secreted SCIMP regulates communication between macrophages and neutrophils in pneumonia” (Nature Communications, 2024)
Each block holds one molecule with its values, some of them ahead of it. Where no end group is shown, it is not given here.

Columns and labels:
murine FPR1 [1] = target: T1, murine FPR1 (murine, UniProt P33766 1-364); test: other fluorescence titration; competitive binding assay; labelled SCIMP^N mixed with serially diluted fMLF (5-1280 nM) and a fixed amount of FPR-containing HEK293 membrane debris, fluorescence at 512 nm measured for 4 min
T1 construct: formyl peptide receptor 1, mouse, overexpressed in HEK293 cells; also called murine formyl peptide receptor 1; source: HEK293 overexpressing FPRs, membrane debris
T1 sequence (looked up): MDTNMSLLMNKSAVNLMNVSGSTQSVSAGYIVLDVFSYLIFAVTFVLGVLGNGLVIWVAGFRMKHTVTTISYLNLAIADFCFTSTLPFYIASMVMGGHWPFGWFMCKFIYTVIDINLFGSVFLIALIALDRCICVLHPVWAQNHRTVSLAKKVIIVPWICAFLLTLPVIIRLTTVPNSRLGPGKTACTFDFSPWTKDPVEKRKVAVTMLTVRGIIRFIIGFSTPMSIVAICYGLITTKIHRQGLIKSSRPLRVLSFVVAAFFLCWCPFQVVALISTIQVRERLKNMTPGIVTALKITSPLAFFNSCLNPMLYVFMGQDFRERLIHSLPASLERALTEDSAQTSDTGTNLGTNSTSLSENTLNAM

[2] = target: T2, human formyl peptide receptor 2 (FPR2) (human, UniProt P25090 1-351); test: as above
T2 construct: formyl peptide receptor 2, human, overexpressed in HEK293 cells; also called FPR2-HEK293; source: HEK293, transiently overexpressed
T2 sequence (looked up): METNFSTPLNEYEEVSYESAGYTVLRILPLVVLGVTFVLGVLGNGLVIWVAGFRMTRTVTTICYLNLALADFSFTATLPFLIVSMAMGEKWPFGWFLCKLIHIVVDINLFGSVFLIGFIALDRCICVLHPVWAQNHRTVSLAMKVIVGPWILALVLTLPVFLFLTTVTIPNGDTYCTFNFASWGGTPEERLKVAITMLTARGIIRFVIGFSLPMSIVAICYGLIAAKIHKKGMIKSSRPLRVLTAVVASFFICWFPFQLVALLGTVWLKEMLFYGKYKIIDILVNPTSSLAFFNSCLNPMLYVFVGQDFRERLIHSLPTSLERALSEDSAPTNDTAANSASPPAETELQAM

murine FPR2 [3] = target: T3, murine FPR2 (murine, UniProt O88536 1-351); test: as above
T3 construct: formyl peptide receptor 2, mouse, overexpressed in HEK293 cells; also called murine formyl peptide receptor 2; source: HEK293 overexpressing FPRs, membrane debris
T3 sequence (looked up): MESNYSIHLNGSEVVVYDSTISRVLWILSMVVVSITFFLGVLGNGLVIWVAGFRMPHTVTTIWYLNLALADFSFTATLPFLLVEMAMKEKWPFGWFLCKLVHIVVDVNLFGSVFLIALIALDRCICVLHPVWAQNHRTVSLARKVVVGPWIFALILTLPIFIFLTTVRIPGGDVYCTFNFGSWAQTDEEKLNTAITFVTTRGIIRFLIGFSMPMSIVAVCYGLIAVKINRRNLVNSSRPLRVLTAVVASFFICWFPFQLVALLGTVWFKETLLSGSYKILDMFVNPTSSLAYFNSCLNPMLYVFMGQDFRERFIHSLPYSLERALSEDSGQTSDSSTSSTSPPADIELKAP

[4] = target: T4, human formyl peptide receptor 1 (FPR1) (human, UniProt P21462 1-350); test: as above
T4 construct: formyl peptide receptor 1, human, overexpressed in HEK293 cells; also called FPR1-HEK293; source: HEK293, transiently overexpressed
T4 sequence (looked up): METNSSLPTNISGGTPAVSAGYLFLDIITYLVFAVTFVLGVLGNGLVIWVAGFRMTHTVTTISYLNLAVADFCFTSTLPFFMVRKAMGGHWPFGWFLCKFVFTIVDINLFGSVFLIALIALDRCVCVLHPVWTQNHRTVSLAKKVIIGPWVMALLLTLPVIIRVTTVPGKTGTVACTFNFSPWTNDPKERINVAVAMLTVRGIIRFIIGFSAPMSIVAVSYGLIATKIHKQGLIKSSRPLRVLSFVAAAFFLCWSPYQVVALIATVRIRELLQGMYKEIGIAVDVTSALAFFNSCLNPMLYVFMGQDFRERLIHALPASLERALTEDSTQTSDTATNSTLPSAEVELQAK

murine FPR1 [5] = target: T1, murine FPR1; test: other fluorescence titration; saturation binding assay; BODIPY FL iodoacetamide-labelled SCIMP^N with membrane component (debris) of HEK293 cells overexpressing FPRs, black/clear bottom 96-well plate, quenching of the label on binding, excited at 370 nm, detected at 512 nm, measured for 4 min; details: one partner purified
murine FPR2 [6] = target: T3, murine FPR2; test: as above; details: one partner purified
[7] = target: T2, human formyl peptide receptor 2 (FPR2); test: as above; details: one partner purified
[8] = target: T4, human formyl peptide receptor 1 (FPR1); test: as above; details: one partner purified

IC50 (murine FPR1 [1]): 148 nM
IC50 [2]: 38.4 nM
IC50 (murine FPR2 [3]): 43.1 nM
IC50 [4]: 55.2 nM
Molecule: N-Formyl-Met-Leu-Phe (fMLF) (peptide)

Kd (murine FPR1 [5]): 1.08 nM
Kd (murine FPR2 [6]): 0.54 nM
B1: murine SCIMP N-terminus peptide (murine SCIMP^N) (peptide)
peptide: MSWWRDNF
modifications: also: labeled with BODIPY FL iodoacetamide, site not given here
notes: N-terminus peptide; source: synthetic peptide (chemically synthesized and purified; Chinese-Peptide-Company.Inc), purity more than 95%

Kd [7]: 3.5 nM
Kd [8]: 3.8 nM
B2: human SCIMP N-terminus peptide (SCIMP^N, 18aa) (peptide)
peptide: MDTFTVQDSTAMSWWRNN
modifications: also: labeled with BODIPY FL iodoacetamide, site not given here
notes: the 18 amino acids before the transmembrane domain at the N-terminus (extramembrane fragment); also called SCIMP N-terminal peptides; source: synthetic peptide (Chinese-Peptide-Company.Inc), purity more than 95%
